Source: US20220017615A1 (SHANGHAI PHARMAEXPLORER, published 2022)

B1: 51E2F11 (antibody, V domains shown)
VH: EVQLQQSGAELVKPGASVKLSCTASGFNIKDHYIHWMNQRTEQGLEWIGRIDPDDGETRYAPKFRGKATLTADTSSNTAYLQFSSLTSEDTAVYHCTRATTITRDWYFDVWGTGTTVTVSS
VL: DIVMTQSQKFMSTSVGDRVSITCKASQNVRTSVAWYQQKPGQSPKALIYLASNRHTGIPDRFTGSGSGTDFTLTIRNVQSEDLADYFCLQHWDYPLTFGAGTKLELK
notes: Murine hybridoma antibody purified on protein G
B2: 54G8G6 (antibody, V domains shown)
VH: QVQLQQPGADLVKPGASVKMSCKASGYTFTSYWIIWVKQRPGQGLEWIGDINPGRGSPNYNEKFKRKATLTVDTSSSTAYMQLSSLTSEDSAVYYCVRGGLRRFDHWGQGTLVTVSA
VL: ENVLTQSPAIMSASPGEKVTMTCRASSSVSSSYLHWYQQKSGASPKLWIYSTSTLASGVPARFSGSGSGTSYSLTISSVEAEDAATYYCQQYSGYPYTFGGGTKLEIK
notes: as for B1

Legend:
[1] = molecular target: T1, human CD47, full length, on transfected cells (human, UniProt Q08722 19-323); experiment: FACS CHOK1-hCD47; Ab 1.6 nM
T1 construct: whole, on cells; also called CHOK1-hCD47
Description: (§1) The CHOK1-hCD47 stable cell lines and CHOK1-cCD47 stable cell lines were expanded to 90% confluence in a T-75 cell culture flask, the medium was exhausted, washed twice with HBSS buffer (Hanks balanced salt solution) (purchased from Invitrogen), and then treated and collected with enzyme-free cell dissociation solution (Versene solution: purchased from Life technology). The cells were washed twice with HBSS buffer. After counted, the cells were diluted with HBSS to 2×10⁶ cells per ml, added with 1% goat serum blocking solution, wherein the percentage was the mass percantage, incubated on ice for 30 minutes, and then washed twice with HBSS by centrifugation. […] The plate was washed 3 times with FACS buffer by centrifugation, added with 100 μl fixative solution [4% (v/v) Paraformaldehyde] per well to suspend the cells. 10 minutes later, it was washed twice with FACS buffer by centrifugation. The cells were suspended with 100 microliters of FACS buffer, FACS (FACS Calibur, purchased from BD) was used for detection and the results were analyzed.

[2] = molecular target: T2, cynomolgus CD47, on CHOK1-cCD47 stable cell line (cynomolgus); experiment: FACS CHOK1-cCD47; Ab 8 nM
T2 construct: whole, on cells; check before use; also called CHOK1/cynoCD47; monkey-derived CD47

[3] = molecular target: T3, biotin-labeled CD47 extracellular domain protein (CD47-ECD) (UniProt Q08722 19-139, limits assumed, biotin-labeled (sites not given)); experiment: blocking ELISA, biotin-CD47-ECD on coated SIRPα-hFc; Ab 40 nM
T3 construct: extracellular domain; also called CD47 protein

[4] = molecular target: T4, His-tagged CD47 recombinant protein, CD47-His (human, UniProt Q08722 19-141, limits assumed); experiment: ELISA on coated CD47-His; Ab 0.533 nM
T4 construct: it is not restated for CD47-His; also called human CD47-His protein; antigen CD47-His; not shown: His tag

[5] = molecular target: T1, human CD47, full length, on transfected …; experiment: FACS CHOK1-hCD47; Ab 0.064 nM
Description: as §1

[6] = molecular target: T2, cynomolgus CD47, on CHOK1-cCD47 stable …; experiment: FACS CHOK1-cCD47; Ab 0.064 nM
Description: as §1

[7] = molecular target: T2, cynomolgus CD47, on CHOK1-cCD47 stable …; experiment: FACS CHOK1-cCD47; Ab 0.32 nM
Description: as §1

[8] = molecular target: T4, His-tagged CD47 recombinant protein, …; experiment: ELISA on coated CD47-His; Ab 0.021 nM
Description: (§2) The plate was sealed with plastic film and incubated at 4° C. overnight. The plate was washed twice with plate washing solution [PBS+0.01% (v/v) Tween20] the next day, and blocking solution [PBS+0.01% (v/v) Tween20 +1% (w/w) BSA] was added to block it at room temperature for 2 hours. […] After incubation at 37° C. for 2 hours, the plates were washed three times with plate washing solution [PBS+0.01% (v/v) Tween 20]. HRP (horseradish peroxidase) labeled secondary antibody (purchased from Sigma) was added, incubated at 37° C. for 2 hours, and then washed three times with plate washing solution [PBS+0.01% (v/v) Tween 20]. 1000 of TMB substrate was added to each well. After incubated at room temperature for 30 minutes, the plate was added with 100 μl of stop solution (1.0N HCl) to each well.

[9] = molecular target: T4, His-tagged CD47 recombinant protein, …; experiment: ELISA on coated CD47-His; Ab 0.004 nM
Description: as §2

[10] = molecular target: T3, biotin-labeled CD47 extracellular …; experiment: blocking ELISA, biotin-CD47-ECD on coated SIRPα-hFc; Ab 0.32 nM
Description: (§3) The plate was sealed with plastic film and incubated at 4° C. overnight. The plate was washed twice with plate washing solution [PBS+0.01% (v/v) Tween20] on the next day, and blocking solution [PBS+0.01% (v/v) Tween20 +1% (w/w) BSA] was added to block it at room temperature for 2 hours. […] After incubation at 37° C. for 2 hours, the plate was washed three times with the plate washing solution [PBS+0.01% (v/v) Tween 20]. HRP (horseradish peroxidase) labeled avidin diluent (purchased from Sigma) was added as 100 microliters per well, and after the plate was incubated for 2 hours at 37° C., it was washed 3 times with washing solution [PBS+0.01% (v/v) Tween 20]. 100 μl of TMB substrate was added to each well. After incubated at room temperature for 30 minutes, the plate was added with 100 μl of stop solution (1.0N HCl) to each well.

[11] = molecular target: T3, biotin-labeled CD47 extracellular …; experiment: blocking ELISA, biotin-CD47-ECD on coated SIRPα-hFc; Ab 0 nM
Description: as §3

[12] = molecular target: T4, His-tagged CD47 recombinant protein, …; experiment: ELISA on coated CD47-His; Ab 13.333 nM
Description: as §2

[13] = molecular target: T2, cynomolgus CD47, on CHOK1-cCD47 stable …; experiment: FACS CHOK1-cCD47; Ab 200 nM
[14] = molecular target: T2, cynomolgus CD47, on CHOK1-cCD47 stable …; experiment: FACS CHOK1-cCD47; Ab 1.6 nM
Description: as §1

[15] = molecular target: T1, human CD47, full length, on transfected …; experiment: FACS CHOK1-hCD47; Ab 0 nM (background)
Description: as §1

[16] = molecular target: T1, human CD47, full length, on transfected …; experiment: FACS CHOK1-hCD47; Ab 200 nM
[17] = molecular target: T2, cynomolgus CD47, on CHOK1-cCD47 stable …; experiment: FACS CHOK1-cCD47; Ab 40 nM
Description: as §1

[18] = molecular target: T1, human CD47, full length, on transfected …; experiment: FACS CHOK1-hCD47; Ab 40 nM
Description: as §1

[19] = molecular target: T3, biotin-labeled CD47 extracellular …; experiment: blocking ELISA, biotin-CD47-ECD on coated SIRPα-hFc; Ab 200 nM
[20] = molecular target: T1, human CD47, full length, on transfected …; experiment: FACS CHOK1-hCD47; Ab 0.32 nM
Description: as §1

[21] = molecular target: T3, biotin-labeled CD47 extracellular …; experiment: blocking ELISA, biotin-CD47-ECD on coated SIRPα-hFc; Ab 1.6 nM
Description: as §3

[22] = molecular target: T4, His-tagged CD47 recombinant protein, …; experiment: ELISA on coated CD47-His; Ab 0.107 nM
Description: as §2

[23] = molecular target: T4, His-tagged CD47 recombinant protein, …; experiment: ELISA on coated CD47-His; Ab 0 nM (background)
Description: as §2

[24] = molecular target: T3, biotin-labeled CD47 extracellular …; experiment: blocking ELISA, biotin-CD47-ECD on coated SIRPα-hFc; Ab 0.0128 nM
Description: as §3

[25] = molecular target: T2, cynomolgus CD47, on CHOK1-cCD47 stable …; experiment: FACS CHOK1-cCD47; Ab 0 nM (background)
Description: as §1

[26] = molecular target: T1, human CD47, full length, on transfected …; experiment: FACS CHOK1-hCD47; Ab 0.0128 nM
Description: as §1

[27] = molecular target: T3, biotin-labeled CD47 extracellular …; experiment: blocking ELISA, biotin-CD47-ECD on coated SIRPα-hFc; Ab 0.064 nM
[28] = molecular target: T4, His-tagged CD47 recombinant protein, …; experiment: ELISA on coated CD47-His; Ab 2.667 nM
[29] = molecular target: T2, cynomolgus CD47, on CHOK1-cCD47 stable …; experiment: FACS CHOK1-cCD47; Ab 0.0128 nM
[30] = molecular target: T4, His-tagged CD47 recombinant protein, …; experiment: ELISA on coated CD47-His; Ab 66.667 nM
Description: as §2

[31] = molecular target: T3, biotin-labeled CD47 extracellular …; experiment: blocking ELISA, biotin-CD47-ECD on coated SIRPα-hFc; Ab 8 nM
Description: as §3

[32] = molecular target: T1, human CD47, full length, on transfected …; experiment: FACS CHOK1-hCD47; Ab 8 nM
Description: as §1

Binder	mean fluorescence intensity [1]	mean fluorescence intensity [2]	OD450 nm of CD47 bound to SIRPα [3]	OD450 nm [4]	mean fluorescence intensity [5]	mean fluorescence intensity [6]	mean fluorescence intensity [7]	OD450 nm [8]	OD450 nm [9]	OD450 nm of CD47 bound to SIRPα [10]	OD450 nm of CD47 bound to SIRPα [11]	OD450 nm [12]	mean fluorescence intensity [13]	mean fluorescence intensity [14]	mean fluorescence intensity [15]	mean fluorescence intensity [16]	mean fluorescence intensity [17]	mean fluorescence intensity [18]	OD450 nm of CD47 bound to SIRPα [19]	mean fluorescence intensity [20]	further results
B1	6460	10600	0.08	2.95	541	288	2880	0.53	0.16	1.57	2.95	2.97	9460	7190	22.6	14600	13300	15900	0.07	2000	OD450 nm of CD47 bound to SIRPα [21]: 0.32; OD450 nm [22]: 1.83; OD450 nm [23]: 0.05; OD450 nm of CD47 bound to SIRPα [24]: 2.94; mean fluorescence intensity [25]: 72.4; mean fluorescence intensity [26]: 174; OD450 nm of CD47 bound to SIRPα [27]: 2.77; OD450 nm [28]: 3; mean fluorescence intensity [29]: 245; OD450 nm [30]: 2.95; OD450 nm of CD47 bound to SIRPα [31]: 0.1; mean fluorescence intensity [32]: 12700
B2	6180	21300	0.06	2.99	561	908	3250	0.62	0.18	0.31	2.9	2.94	17200	9570	23.1	16700	21200	17700	0.07	1940	OD450 nm of CD47 bound to SIRPα [21]: 0.13; OD450 nm [22]: 2.1; OD450 nm [23]: 0.05; OD450 nm of CD47 bound to SIRPα [24]: 2.89; mean fluorescence intensity [25]: 76.8; mean fluorescence intensity [26]: 216; OD450 nm of CD47 bound to SIRPα [27]: 1.76; OD450 nm [28]: 3; mean fluorescence intensity [29]: 278; OD450 nm [30]: 2.86; OD450 nm of CD47 bound to SIRPα [31]: 0.09; mean fluorescence intensity [32]: 13500
